Data from patent EP4361176A1 (CHUGAI SEIYAKU KABUSHIKI KAISHA, dated 2024).

Tests used:
[1] = target: T1, human FcγRIIIa F extracellular domain (human, UniProt P08637 17-208); experiment: SPR; KD for FcγRIIb divided by KD for this FcγR
T1 construct: extracellular domain; Made by the method of WO2014104165; also called hFcγR IIIa F; FcyRIIIaF

[2] = target: T2, human FcγRIIa H extracellular domain (human, UniProt P12318 34-217); experiment: SPR; KD for FcγRIIb divided by KD for this FcγR
T2 construct: extracellular domain; Made by the method of WO2014104165; also called hFcγR IIa H; FcyRIIaH
T2 sequence (looked up): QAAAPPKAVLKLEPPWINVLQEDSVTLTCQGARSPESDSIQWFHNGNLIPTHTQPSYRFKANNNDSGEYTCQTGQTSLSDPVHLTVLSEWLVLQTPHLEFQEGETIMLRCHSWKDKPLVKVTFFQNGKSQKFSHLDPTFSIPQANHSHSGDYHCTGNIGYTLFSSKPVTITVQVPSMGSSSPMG

[3] = target: T3, hFcyRIIaH on hFcyRIIaH-expressing Jurkat cells (human, UniProt P12318 34-317); experiment: cell-based or functional assay
T3 sequence (looked up): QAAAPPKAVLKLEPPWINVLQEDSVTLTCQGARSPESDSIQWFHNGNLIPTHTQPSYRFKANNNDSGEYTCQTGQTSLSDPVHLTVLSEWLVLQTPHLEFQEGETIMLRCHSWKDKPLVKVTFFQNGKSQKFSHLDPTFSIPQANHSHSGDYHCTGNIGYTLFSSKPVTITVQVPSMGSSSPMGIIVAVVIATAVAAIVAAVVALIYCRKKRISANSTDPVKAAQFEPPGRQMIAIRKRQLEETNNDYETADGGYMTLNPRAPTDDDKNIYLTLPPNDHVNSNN

[4] = target: hFcyRIIIaV on hFcyRIIIaV-expressing Jurkat cells (human, UniProt P08637 17-254); experiment: cell-based or functional assay
Sequence of hFcyRIIIaV on hFcyRIIIaV-expressing Jurkat cells (P08637 17-254): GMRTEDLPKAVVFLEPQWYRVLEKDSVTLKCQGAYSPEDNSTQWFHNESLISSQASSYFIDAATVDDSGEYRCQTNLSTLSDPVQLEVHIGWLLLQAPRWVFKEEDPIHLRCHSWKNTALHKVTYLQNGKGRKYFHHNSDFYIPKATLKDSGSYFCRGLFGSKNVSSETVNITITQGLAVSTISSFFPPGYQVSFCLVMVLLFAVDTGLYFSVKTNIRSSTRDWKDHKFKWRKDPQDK

T1 sequence (P08637 17-208): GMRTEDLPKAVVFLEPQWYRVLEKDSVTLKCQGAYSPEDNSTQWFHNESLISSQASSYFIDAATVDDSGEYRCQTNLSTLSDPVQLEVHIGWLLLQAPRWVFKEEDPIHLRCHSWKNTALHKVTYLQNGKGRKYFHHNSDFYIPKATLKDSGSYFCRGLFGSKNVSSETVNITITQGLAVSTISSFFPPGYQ

B1: H240-Kn496/L73-k0//H240-Hl516/L73-k0 (antibody, human IgG1, kappa)
heavy 1: QDQLVQSGAEVKKPGASVKVSCKASGFNIKDTYIQWVRQAPGQGLEWMGRIDPLRKQTKYREKFEGRVTITADTSTNTAYMELSSLRSEDTAVYYCVRSGREFDYWGQGTLVTVSSASTKGPSVFPLAPSSKSTSGGTAALGCLVKDYFPEPVTVSWNSGALTSGVHTFPAVLQSSGLYSLSSVVTVPSSSLGTQTYICNVNHKPSNTKVDKKVEPKSCDKTHTCPPCPAPEFQWGPMVFLFPPKPKDVLMISRTPEVTCVVVDVSDEEPEVKFNWYVDGVEVHNAKTKPREEQYNATYRVVSVLPVLHQDWLNGKEYKCKVSNKALPAPIEKTISKAKGQPREPQVCTLPPSRDELTKNQVSLWCLVKGFYPSDIAVEWESNGQPENNYKTTPPVLDSDGSFFLYSKLTVDKSRWQQGNVFSCSVMHEALHNHYTQKSLSLSP
heavy 2: QDQLVQSGAEVKKPGASVKVSCKASGFNIKDTYIQWVRQAPGQGLEWMGRIDPLRKQTKYREKFEGRVTITADTSTNTAYMELSSLRSEDTAVYYCVRSGREFDYWGQGTLVTVSSASTKGPSVFPLAPSSKSTSGGTAALGCLVKDYFPEPVTVSWNSGALTSGVHTFPAVLQSSGLYSLSSVVTVPSSSLGTQTYICNVNHKPSNTKVDKKVEPKSCDKTHTCPPCPAPELLGGPSVFLFPPKPKDVLMISRTPEVTCVVVDVSHEEPEVKFNWYVDGVEVHNAKTKPREEQYNATYRVVSVLPVLHQDWLNGKEYKCKVSNDALPAPIEETISKAKGQPREPQVYTLPPSRCELTKNQVSLSCAVKGFYPSDIAVEWESNGQPENNYKTTPPVLDSDGSFFLVSKLTVDKSRWQQGNVFSCSVMHEALHNHYTQKSLSLSP
light: DIQMTQSPSSLSASVGDRVTITCRASQDIHKYIAWYQQKPGQAPRLLIQYTSTLQPGVPSRFSGSGSGTDYTFTISSLQPEDIATYYCLQYEQLRTFGGGTKVEIKRTVAAPSVFIFPPSDEQLKSGTASVVCLLNNFYPREAKVQWKVDNALQSGNSQESVTEQDSKDSTYSLSSTLTLSKADYEKHKVYACEVTHQGLSSPVTKSFNRGEC
notes: also called EGL-ART11; ART11
- A/I ratio (KD for FcγRIIb divided by KD for each FcyR) [1]: 694
- A/I ratio (KD for FcγRIIb divided by KD for each FcyR) [2]: 63.3
- EC50 value (µg/mL), ADCP reporter bioassay (fold induction of luminescence), Hepa1-6/hEREG target cells [3]: 0.0367 µg/mL
- EC50 value (µg/mL), ADCC reporter bioassay (fold induction of luminescence), Hepa1-6/hEREG target cells [4]: 0.000413 µg/mL

B2: H240-Kn120/L73-k0//H240-Hl068/L73-k0 (antibody, human IgG1, kappa)
heavy 1: QDQLVQSGAEVKKPGASVKVSCKASGFNIKDTYIQWVRQAPGQGLEWMGRIDPLRKQTKYREKFEGRVTITADTSTNTAYMELSSLRSEDTAVYYCVRSGREFDYWGQGTLVTVSSASTKGPSVFPLAPSSKSTSGGTAALGCLVKDYFPEPVTVSWNSGALTSGVHTFPAVLQSSGLYSLSSVVTVPSSSLGTQTYICNVNHKPSNTKVDKKVEPKSCDKTHTCPPCPAPEYYWGPMVFLFPPKPKDTLMISRTPEVTCVVVDVSDEDPEVKFNWYVDGVEVHNAKTKPREEQYNATYRVVSVLTVLHQDWLNGKEYKCKVSNKDLPAPIEKTISKAKGQPREPQVCTLPPSRDELTKNQVSLWCLVKGFYPSDIAVEWESNGQPENNYKTTPPVLDSDGSFFLYSKLTVDKSRWQQGNVFSCSVMHEALHNHYTQKSLSLSP
heavy 2: QDQLVQSGAEVKKPGASVKVSCKASGFNIKDTYIQWVRQAPGQGLEWMGRIDPLRKQTKYREKFEGRVTITADTSTNTAYMELSSLRSEDTAVYYCVRSGREFDYWGQGTLVTVSSASTKGPSVFPLAPSSKSTSGGTAALGCLVKDYFPEPVTVSWNSGALTSGVHTFPAVLQSSGLYSLSSVVTVPSSSLGTQTYICNVNHKPSNTKVDKKVEPKSCDKTHTCPPCPAPELLGGPSVFLFPPKPKDTLMISRTPEVTCVVVDVSHEEPEVKFNWYVDGVEVHNAKTKPREEQYNSTYRVVSVLTVLHQDWLNGKEYKCKVSNDALPKPIEETISKAKGQPREPQVYTLPPSRCELTKNQVSLSCAVKGFYPSDIAVEWESNGQPENNYKTTPPVLDSDGSFFLVSKLTVDKSRWQQGNVFSCSVMHEALHNHYTQKSLSLSP
light: DIQMTQSPSSLSASVGDRVTITCRASQDIHKYIAWYQQKPGQAPRLLIQYTSTLQPGVPSRFSGSGSGTDYTFTISSLQPEDIATYYCLQYEQLRTFGGGTKVEIKRTVAAPSVFIFPPSDEQLKSGTASVVCLLNNFYPREAKVQWKVDNALQSGNSQESVTEQDSKDSTYSLSSTLTLSKADYEKHKVYACEVTHQGLSSPVTKSFNRGEC
notes: also called EGL-ART2; ART2
- A/I ratio (KD for FcγRIIb divided by KD for each FcyR) [1]: 68.4
- A/I ratio (KD for FcγRIIb divided by KD for each FcyR) [2]: 5.8
- EC50 value (µg/mL), ADCP reporter bioassay (fold induction of luminescence), Hepa1-6/hEREG target cells [3]: 0.0218 µg/mL
- EC50 value (µg/mL), ADCC reporter bioassay (fold induction of luminescence), Hepa1-6/hEREG target cells [4]: 0.00135 µg/mL

B3: H240-G1d/L73-k0 (antibody, human IgG1, kappa)
heavy: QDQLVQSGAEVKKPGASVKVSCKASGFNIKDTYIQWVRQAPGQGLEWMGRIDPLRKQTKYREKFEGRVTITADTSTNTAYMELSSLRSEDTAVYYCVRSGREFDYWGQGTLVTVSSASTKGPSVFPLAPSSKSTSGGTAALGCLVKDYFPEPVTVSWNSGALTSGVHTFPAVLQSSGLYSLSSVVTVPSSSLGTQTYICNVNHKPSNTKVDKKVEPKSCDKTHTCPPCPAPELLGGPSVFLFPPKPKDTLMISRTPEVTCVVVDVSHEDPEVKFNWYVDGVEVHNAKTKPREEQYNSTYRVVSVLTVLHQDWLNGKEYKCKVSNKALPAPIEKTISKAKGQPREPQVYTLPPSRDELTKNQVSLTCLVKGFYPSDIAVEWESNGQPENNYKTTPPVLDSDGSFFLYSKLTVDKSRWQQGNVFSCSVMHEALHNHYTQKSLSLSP
light: DIQMTQSPSSLSASVGDRVTITCRASQDIHKYIAWYQQKPGQAPRLLIQYTSTLQPGVPSRFSGSGSGTDYTFTISSLQPEDIATYYCLQYEQLRTFGGGTKVEIKRTVAAPSVFIFPPSDEQLKSGTASVVCLLNNFYPREAKVQWKVDNALQSGNSQESVTEQDSKDSTYSLSSTLTLSKADYEKHKVYACEVTHQGLSSPVTKSFNRGEC
notes: Anti-human Epiregulin antibody with the human IgG1 constant region G1d (C-terminal Gly and Lys removed); the text gives 279; also called EGL-G1d
- A/I ratio (KD for FcγRIIb divided by KD for each FcyR) [1]: 3.4
- A/I ratio (KD for FcγRIIb divided by KD for each FcyR) [2]: 8.9
- EC50 value (µg/mL), ADCC reporter bioassay (fold induction of luminescence), Hepa1-6/hEREG target cells [4]: 0.0463 µg/mL

B4: H240-Kn032/L73-k0//H240-Hl032/L73-k0 (antibody, human IgG1, kappa)
heavy 1: QDQLVQSGAEVKKPGASVKVSCKASGFNIKDTYIQWVRQAPGQGLEWMGRIDPLRKQTKYREKFEGRVTITADTSTNTAYMELSSLRSEDTAVYYCVRSGREFDYWGQGTLVTVSSASTKGPSVFPLAPSSKSTSGGTAALGCLVKDYFPEPVTVSWNSGALTSGVHTFPAVLQSSGLYSLSSVVTVPSSSLGTQTYICNVNHKPSNTKVDKKVEPKSCDKTHTCPPCPAPELLGGPDVFLFPPKPKDTLMISRTPEVTCVVVDVSHEDPEVKFNWYVDGVEVHNAKTKPREEQYNSTYRVVSVLTVLHQDWLNGKEYKCKVSNKALPLPEEKTISKAKGQPREPQVCTLPPSRDELTKNQVSLWCLVKGFYPSDIAVEWESNGQPENNYKTTPPVLDSDGSFFLYSKLTVDKSRWQQGNVFSCSVMHEALHNHYTQKSLSLSP
heavy 2: QDQLVQSGAEVKKPGASVKVSCKASGFNIKDTYIQWVRQAPGQGLEWMGRIDPLRKQTKYREKFEGRVTITADTSTNTAYMELSSLRSEDTAVYYCVRSGREFDYWGQGTLVTVSSASTKGPSVFPLAPSSKSTSGGTAALGCLVKDYFPEPVTVSWNSGALTSGVHTFPAVLQSSGLYSLSSVVTVPSSSLGTQTYICNVNHKPSNTKVDKKVEPKSCDKTHTCPPCPAPELLGGPDVFLFPPKPKDTLMISRTPEVTCVVVDVSHEDPEVKFNWYVDGVEVHNAKTKPREEQYNSTYRVVSVLTVLHQDWLNGKEYKCKVSNKALPLPEEKTISKAKGQPREPQVYTLPPSRCELTKNQVSLSCAVKGFYPSDIAVEWESNGQPENNYKTTPPVLDSDGSFFLVSKLTVDKSRWQQGNVFSCSVMHEALHNHYTQKSLSLSP
light: DIQMTQSPSSLSASVGDRVTITCRASQDIHKYIAWYQQKPGQAPRLLIQYTSTLQPGVPSRFSGSGSGTDYTFTISSLQPEDIATYYCLQYEQLRTFGGGTKVEIKRTVAAPSVFIFPPSDEQLKSGTASVVCLLNNFYPREAKVQWKVDNALQSGNSQESVTEQDSKDSTYSLSSTLTLSKADYEKHKVYACEVTHQGLSSPVTKSFNRGEC
notes: also called EGL-SDALIE; SDALIE
- A/I ratio (KD for FcγRIIb divided by KD for each FcyR) [1]: 98.7
- A/I ratio (KD for FcγRIIb divided by KD for each FcyR) [2]: 2.2
- EC50 value (µg/mL), ADCC reporter bioassay (fold induction of luminescence), Hepa1-6/hEREG target cells [4]: 0.00178 µg/mL
